In PMC6791870, “Switch of the interactions between the ribosomal stalk and EF1A in the GTP- and GDP-bound conformations” (Scientific Reports, 2019):
Substitutions are numbered along the chain they refer to. Primed or numbered codes have the meaning given here. Where no end group is shown, it is not given here. FITC′ = fluorescein isothiocyanate label

How the values were obtained:
Experiment in all cases: fluorescence polarisation; FITC-labeled PhoP1C14 peptide (50 nM) mixed with 0-160 µM of the complex of each PhoEF1A mutant, GTP and PfuPelota; 20 mM HEPES-KOH pH 7.6, 10 mM MgCl2, 150 mM KCl, 0.1 mg/ml BSA; 25 °C; nonlinear regression, one site specific binding (GraphPad Prism 6); average of three replicates
Conditions in all cases: both partners purified
[1] = target: T1, PhoEF1A R132A•GTP•PfuPelota complex (Pyrococcus horikoshii | Pyrococcus …, UniProt O59153 1-428, R132A)
T1 construct: elongation factor aEF1A of Pyrococcus horikoshii (PhoEF1A); complex of the EF1A mutant, GTP and PfuPelota; also called R132(R140)A; P. horikoshii aEF1A-R132A
T1 sequence 1: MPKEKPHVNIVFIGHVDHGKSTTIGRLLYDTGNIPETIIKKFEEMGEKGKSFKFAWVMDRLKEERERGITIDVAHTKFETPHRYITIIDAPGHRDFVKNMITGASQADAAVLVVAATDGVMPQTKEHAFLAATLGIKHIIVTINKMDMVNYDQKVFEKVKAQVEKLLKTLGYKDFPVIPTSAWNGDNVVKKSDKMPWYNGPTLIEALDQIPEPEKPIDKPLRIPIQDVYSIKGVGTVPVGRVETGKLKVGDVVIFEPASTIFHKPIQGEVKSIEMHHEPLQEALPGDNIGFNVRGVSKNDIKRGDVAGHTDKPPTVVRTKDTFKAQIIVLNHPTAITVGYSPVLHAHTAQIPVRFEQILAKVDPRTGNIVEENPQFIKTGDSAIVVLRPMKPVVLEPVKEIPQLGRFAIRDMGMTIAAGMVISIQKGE
T1 sequence 2: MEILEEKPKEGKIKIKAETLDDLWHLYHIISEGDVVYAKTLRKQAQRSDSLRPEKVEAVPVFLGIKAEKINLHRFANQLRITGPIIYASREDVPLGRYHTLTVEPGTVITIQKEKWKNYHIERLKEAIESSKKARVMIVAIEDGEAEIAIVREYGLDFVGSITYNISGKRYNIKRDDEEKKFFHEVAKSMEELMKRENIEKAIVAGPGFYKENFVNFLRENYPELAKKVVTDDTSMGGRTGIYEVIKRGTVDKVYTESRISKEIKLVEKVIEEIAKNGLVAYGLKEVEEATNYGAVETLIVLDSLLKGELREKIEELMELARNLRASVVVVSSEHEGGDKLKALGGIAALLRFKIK

[2] = target: T2, PhoEF1A Q326A•GTP•PfuPelota complex (Pyrococcus horikoshii | Pyrococcus …, UniProt O59153 1-428, Q326A)
T2 construct: elongation factor aEF1A of Pyrococcus horikoshii (PhoEF1A); complex of the EF1A mutant, GTP and PfuPelota; also called Q326(R329)A; P. horikoshii aEF1A-Q326A
T2 sequence 1: T1 sequence 1 with A132R, Q326A
T2 sequence 2: T1 sequence 2

[3] = target: T3, PhoEF1A M420S•GTP•PfuPelota complex (Pyrococcus horikoshii | Pyrococcus …, UniProt O59153 1-428, M420S)
T3 construct: elongation factor aEF1A of Pyrococcus horikoshii (PhoEF1A); complex of the EF1A mutant, GTP and PfuPelota; also called M420(I423)S; P. horikoshii aEF1A-M420S
T3 sequence 1: T1 sequence 1 with A132R, M420S
T3 sequence 2: T1 sequence 2

B1: FITC-labeled C-terminal 14-mer peptide of P. horikoshii aP1 (PhoP1C14) (peptide)
peptide: {FITC′}-SEEEALAGLSALFG
notes: also called FITC-labeled peptide of PhoP1C14; source: synthetic peptide (Hokkaido System Science Co., Ltd)
B1 showed a Kd [1] of 87.8 ± 12 µM, a Kd [2] of 11.1 ± 0.8 µM and a Kd [3] of 80.1 ± 8.7 µM.
